Consider 39 sequences from the supplement of paper PMC7877785.

The nature of this data set: self-splicing fitness, log relative to wild type (ln ratio); higher = more splicing; Tetrahymena group I intron in knt gene, E. coli kanamycin selection, DiMSum; sequences stand for … in CUCUCU…GGAGGGAAAAGUUAUCAGGCAUGCACCUGGUAGCUAGUCUUUAAACCAAUAGAUUGCAUCGGUUUAAAAGGCAAGACCGUCAAAUUGCGGGAAAGGGGUCAACAGCCGUUCAGUACCAAGUCUCAGGGGAAACUUUGAGAUGGCCUUGCAAAGGGUAUGGUAAUAAGCUGACGGACAUGGUCCUAACCACGCAGCCAAGUCCUAAGUCAACAGAUCUUCUGUUGAUAUGGAUGCAGUUCACAGACUAAAUGUCGGUCGGGGAAGAUGUAUUCUUCUCAUAAGAUAUAGUCGGACCUCUCCUUAAUGGGAGCUAGCGGAUGAAGUGAUGCAACACUGGAGCCGCUGGGAACUAAUUUGUAUGCGAAAGUAUAUUGAUUAGUUUUGGAGUACUCGUGGUCG
In outline: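 Six replicate transformations of E. coli BL21(DE3) with a pET-22b(+) library were grown overnight at 37°C or 30°C. The library randomised all eight P1ex-region intron nucleotides, the intron lying in the knt kanamycin-resistance gene, and plates were LB agar with or without 25 μg/mL kanamycin plus 100 μg/mL carbenicillin, 50 μM IPTG and 0.2% rhamnose. Pooled colonies were amplicon-sequenced on an Illumina HiSeq 2500, and fitness is the DiMSum error-weighted combination of wild-type-normalised replicate fold changes, kanamycin versus none.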

± gives the uncertainty stated by the source.

GAGGAGCAAUAUUACGCACU: the “self-splicing fitness (ln)” value (37 °C) was -1.49 ± 0.36. As to GAGGAGCAAUAUUACGCGGA, the “self-splicing fitness (ln)” value was -3.27 ± 0.4 (30 °C) and -2.76 ± 0.41 (37 °C).

In the case of GAGGAGCAAUAUUACGCGUA, the “self-splicing fitness (ln)” value is, setting by setting: (30 °C) -2.97 ± 0.27; (37 °C) -1.6 ± 0.37.

For the sequence GAGGAGCAAUAUUACGGCGA, the “self-splicing fitness (ln)” value (30 °C) was -1.1 ± 0.23 and the “self-splicing fitness (ln)” value (37 °C) is -0.687 ± 0.2. In the same order, the values of GAGGAGCAAUAUUACGGCGG are -2.33 ± 0.2 and -1.7 ± 0.38. The corresponding values for GAGGAGCAAUAUUACGGGAG are -4.37 ± 0.29 and -3.63 ± 0.35. In the same order, the values of GAGGAGCAAUAUUACGGGGU are -4.47 ± 0.34 and -2.64 ± 0.22. In the case of GAGGAGCAAUAUUACGGUAA, the “self-splicing fitness (ln)” value was -3.65 ± 0.37 (30 °C) and -2.22 ± 0.36 (37 °C). The corresponding values for GAGGAGCAAUAUUACGGUGC are -3.87 ± 0.28 and -2.32 ± 0.15.

For GAGGAGCAAUAUUACGUAAG, the “self-splicing fitness (ln)” value reads like this: (30 °C) -3.04 ± 0.27; (37 °C) -2.13 ± 0.34.

For the sequence GAGGAGCAAUAUUACGUAUG, the “self-splicing fitness (ln)” value (30 °C) was -3.97 ± 0.47 and the “self-splicing fitness (ln)” value (37 °C) is -2.83 ± 0.4.

Consider GAGGAGCAAUAUUACGUGCC, for which the “self-splicing fitness (ln)” value reads like this: (30 °C) -3.24 ± 0.26; (37 °C) -2.41 ± 0.28. The corresponding values for GAGUAGCAAUAUUACGAAAU are -2.68 ± 0.21 and -1.37 ± 0.23. In the same order, the values of GAGUAGCAAUAUUACGACGU are 0.156 ± 0.093 and 0.524 ± 0.11. In the same order, the values of GAGUAGCAAUAUUACGACUA are 0.106 ± 0.14 and -0.537 ± 0.13.

Turning to GAGUAGCAAUAUUACGAGGA, for the setting “37 °C”, the “self-splicing fitness (ln)” value is -1.81 ± 0.4. With GAGUAGCAAUAUUACGAGUA, the “self-splicing fitness (ln)” value is -1.92 ± 0.16 (30 °C) and -1.28 ± 0.17 (37 °C). The corresponding values for GAGUAGCAAUAUUACGAUAA are -2.41 ± 0.25 and -1.18 ± 0.2. For the sequence GAGUAGCAAUAUUACGCACA, the “self-splicing fitness (ln)” value reads like this: (30 °C) -0.806 ± 0.14; (37 °C) -0.0514 ± 0.18.

As for GAGUAGCAAUAUUACGCCAU, the “self-splicing fitness (ln)” value is -2.49 ± 0.19 (30 °C) and -2.33 ± 0.31 (37 °C). In the same order, the values of GAGUAGCAAUAUUACGCCUA are -1.21 ± 0.1 and -0.374 ± 0.11.

As for GAGUAGCAAUAUUACGCGAA, where the note is “37 °C”, the “self-splicing fitness (ln)” value was -0.658 ± 0.37. Turning to GAGUAGCAAUAUUACGCUAG, the “self-splicing fitness (ln)” value is -2.38 ± 0.18 (30 °C) and -0.481 ± 0.18 (37 °C).

For GAGUAGCAAUAUUACGCUGA, the “self-splicing fitness (ln)” value (37 °C) is -1.55 ± 0.39. With GAGUAGCAAUAUUACGGCAA, the “self-splicing fitness (ln)” value (30 °C) is -1.84 ± 0.17 and the “self-splicing fitness (ln)” value (37 °C) is -0.547 ± 0.18. The corresponding values for GAGUAGCAAUAUUACGGCAU are -0.177 ± 0.089 and 0.37 ± 0.11. For the sequence GAGUAGCAAUAUUACGGCUA, the “self-splicing fitness (ln)” value runs as follows: (30 °C) -1.11 ± 0.29; (37 °C) -1.37 ± 0.31. Take GAGUAGCAAUAUUACGGGAA: the “self-splicing fitness (ln)” value runs as follows: (30 °C) -2.33 ± 0.21; (37 °C) -2.14 ± 0.19. The corresponding values for GAGUAGCAAUAUUACGGUGC are -1.19 ± 0.15 and 0.00945 ± 0.18. The corresponding values for GAGUAGCAAUAUUACGGUUG are -2.7 ± 0.2 and -1.06 ± 0.2. In the same order, the values of GAGUAGCAAUAUUACGUGCA are -1.35 ± 0.14 and 0.558 ± 0.2. Turning to GAGUAGCAAUAUUACGUGCG, the “self-splicing fitness (ln)” value runs as follows: (30 °C) -2.61 ± 0.17; (37 °C) 0.0549 ± 0.13. In the same order, the values of GAUAAGCAAUAUUACGAACG are -1.22 ± 0.14 and -0.754 ± 0.17. In the same order, the values of GAUAAGCAAUAUUACGAAGC are -2.17 ± 0.28 and -0.18 ± 0.21. For GAUAAGCAAUAUUACGACAC, the “self-splicing fitness (ln)” value was -0.403 ± 0.12 (30 °C) and 0.0901 ± 0.16 (37 °C). The corresponding values for GAUAAGCAAUAUUACGAGCC are -1.5 ± 0.17 and -1.27 ± 0.23. In the same order, the values of GAUAAGCAAUAUUACGCACG are -1.16 ± 0.13 and -0.4 ± 0.17. The corresponding values for GAUAAGCAAUAUUACGCACU are -1.21 ± 0.16 and -0.284 ± 0.2. For GAUAAGCAAUAUUACGCCGA, the “self-splicing fitness (ln)” value by setting is: (30 °C) -2.01 ± 0.18; (37 °C) -1.14 ± 0.22.
